Paper PMC5640987 (Nature, 2017)

Assays:
Tor1 = Tor1 (budding yeast (endogenous), UniProt P35169 1-2470); test: cryo-EM structure
cryo-EM structure = molecular target: the molecule itself; test: cryo-EM structure

Chain of Tor1 (P35169 whole entry): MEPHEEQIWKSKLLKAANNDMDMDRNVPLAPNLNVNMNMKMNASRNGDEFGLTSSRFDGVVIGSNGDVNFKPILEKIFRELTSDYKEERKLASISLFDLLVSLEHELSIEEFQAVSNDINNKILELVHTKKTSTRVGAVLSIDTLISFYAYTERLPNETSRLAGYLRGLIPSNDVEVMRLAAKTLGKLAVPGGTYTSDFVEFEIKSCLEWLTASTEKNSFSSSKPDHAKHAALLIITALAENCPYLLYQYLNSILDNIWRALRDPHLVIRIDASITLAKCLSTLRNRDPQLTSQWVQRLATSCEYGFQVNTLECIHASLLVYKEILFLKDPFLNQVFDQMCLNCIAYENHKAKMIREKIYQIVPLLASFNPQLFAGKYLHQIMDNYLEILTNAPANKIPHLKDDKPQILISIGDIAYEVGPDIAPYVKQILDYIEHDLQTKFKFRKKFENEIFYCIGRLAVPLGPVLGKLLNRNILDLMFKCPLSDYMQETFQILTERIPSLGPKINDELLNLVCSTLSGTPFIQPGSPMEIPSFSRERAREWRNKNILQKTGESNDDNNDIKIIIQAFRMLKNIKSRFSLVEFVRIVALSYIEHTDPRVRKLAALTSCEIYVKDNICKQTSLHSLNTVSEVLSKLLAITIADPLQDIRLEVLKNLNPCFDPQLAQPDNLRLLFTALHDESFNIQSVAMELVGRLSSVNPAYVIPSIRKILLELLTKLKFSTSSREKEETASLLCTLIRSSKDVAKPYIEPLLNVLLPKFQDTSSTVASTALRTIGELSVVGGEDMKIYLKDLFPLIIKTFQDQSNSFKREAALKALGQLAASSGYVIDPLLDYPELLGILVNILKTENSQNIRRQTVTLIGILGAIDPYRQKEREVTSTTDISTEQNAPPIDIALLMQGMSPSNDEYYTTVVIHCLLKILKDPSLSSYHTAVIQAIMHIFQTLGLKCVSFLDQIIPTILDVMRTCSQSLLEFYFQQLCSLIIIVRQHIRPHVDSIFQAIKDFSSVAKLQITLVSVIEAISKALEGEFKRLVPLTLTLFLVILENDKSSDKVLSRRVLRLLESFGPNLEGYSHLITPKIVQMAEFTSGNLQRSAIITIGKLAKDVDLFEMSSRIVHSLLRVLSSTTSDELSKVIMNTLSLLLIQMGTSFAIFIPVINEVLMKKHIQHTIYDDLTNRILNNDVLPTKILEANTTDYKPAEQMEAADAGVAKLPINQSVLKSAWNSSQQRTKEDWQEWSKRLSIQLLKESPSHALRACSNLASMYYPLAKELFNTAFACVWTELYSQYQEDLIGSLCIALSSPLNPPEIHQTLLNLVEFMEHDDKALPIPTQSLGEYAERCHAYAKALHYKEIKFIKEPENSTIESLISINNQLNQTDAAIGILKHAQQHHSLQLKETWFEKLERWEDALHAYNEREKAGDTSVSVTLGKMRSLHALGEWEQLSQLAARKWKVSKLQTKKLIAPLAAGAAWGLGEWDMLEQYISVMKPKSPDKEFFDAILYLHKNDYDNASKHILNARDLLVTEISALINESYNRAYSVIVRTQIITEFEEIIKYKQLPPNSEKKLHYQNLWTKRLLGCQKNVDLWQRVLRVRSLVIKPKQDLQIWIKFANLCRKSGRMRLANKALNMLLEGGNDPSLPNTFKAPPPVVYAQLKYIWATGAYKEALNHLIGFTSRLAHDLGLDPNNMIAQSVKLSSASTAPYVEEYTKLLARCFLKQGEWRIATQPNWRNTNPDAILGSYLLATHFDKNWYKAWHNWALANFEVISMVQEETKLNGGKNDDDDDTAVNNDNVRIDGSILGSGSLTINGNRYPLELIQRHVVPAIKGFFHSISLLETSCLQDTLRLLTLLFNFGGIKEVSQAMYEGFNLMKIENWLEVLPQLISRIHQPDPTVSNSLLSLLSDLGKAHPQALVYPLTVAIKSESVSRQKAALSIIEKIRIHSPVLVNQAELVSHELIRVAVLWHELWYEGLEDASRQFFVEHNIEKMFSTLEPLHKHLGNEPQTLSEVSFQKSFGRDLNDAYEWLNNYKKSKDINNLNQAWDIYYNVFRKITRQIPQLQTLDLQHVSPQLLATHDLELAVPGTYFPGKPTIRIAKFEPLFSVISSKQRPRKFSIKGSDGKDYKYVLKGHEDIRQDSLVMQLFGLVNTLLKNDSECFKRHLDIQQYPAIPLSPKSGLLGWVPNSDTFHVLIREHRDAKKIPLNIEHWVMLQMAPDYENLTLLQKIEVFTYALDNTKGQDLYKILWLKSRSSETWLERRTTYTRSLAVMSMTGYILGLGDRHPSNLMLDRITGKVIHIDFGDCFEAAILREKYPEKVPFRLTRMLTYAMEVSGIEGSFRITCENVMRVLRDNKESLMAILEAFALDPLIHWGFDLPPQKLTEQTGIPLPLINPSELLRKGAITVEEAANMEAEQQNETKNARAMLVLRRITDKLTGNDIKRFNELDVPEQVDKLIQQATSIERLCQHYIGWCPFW

B1: Kog1 in the purified TORC1 helix (natural protein)
chain: MPEIYGPQPLKPLNTVMRHGFEEQYQSDQLLQSLANDFIFYFDDKRHKTNGNPIPEEDKQRDVNRYYQPITDWKIMKDRQKTVSAALLLCLNLGVDPPDVMKTHPCARVEAWVDPLNFQDSKKAIEQIGKNLQAQYETLSLRTRYKQSLDPCVEDVKRFCNSLRRTSKEDRILFHYNGHGVPKPTKSGEIWVFNRGYTQYIPVSLYDLQTWLGAPCIFVYDCNSAENILINFQKFVQKRIKDDEEGNHDVAAPSPTSAYQDCFQLASCTSDELLLMSPELPADLFSCCLTCPIEISIRIFLMQSPLKDSKYKIFFENSTSNQPFGDSKNSFKSKIPNVNIPGMLSDRRTPLGELNWIFTAITDTIAWTSLPRPLFKKLFRHDLMIAALFRNFLLAKRIMPWYNCHPVSDPELPDSITTHPMWKSWDLAMDEVLTKIVIDLKNAPPATALESQMILQQQETLQNGGSSKSNAQDTKAGSIQTQSRFAVANLSTMSLVNNPALQSRKSISLQSSQQQLQQQQQQQQQFTGFFEQNLTAFELWLKYASNVRHPPEQLPIVLQVLLSQVHRIRALVLLSRFLDLGPWAVYLSLSIGIFPYVLKLLQSPAPELKPILVFIWARIMSIDYKNTQSELIKEKGYMYFVTVLVPDWGVNGMSATNGSAMINSGNPLTMTASQNINGPSSRYYERQQGNRTSNLGHNNLPFYHSNDTTDEQKAMAVFVLASFVRNFPLGQKNCFSLELVNKLCFYIDNSEIPLLRQWCVILLGLLFADNPLNRFVCMNTGAVEILLKSLKDPVPEVRTASIFALKHFISGFQDAEVILRLQQEFEEQYQQLHSQLQHLQNQSHLQQQQSQQQQQHLEQQQMKIEKQIRHCQVMQNQLEVIDLRKLKRQEIGNLISILPLINDGSSLVRKELVVYFSHIVSRYSNFFIVVVFNDLLEEIKLLEKSDINTRNTSDKYSVSQGSIFYTVWKSLLILAEDPFLENKELSKQVIDYILLELSAHKELGGPFAVMEKFLLKRSSKAHQTGKFGFNSSQVQFVKSSLRSFSPNERVDNNAFKKEQQQHDPKISHPMRTSLAKLFQSLGFSESNSDSDTQSSNTSMKSHTSKKGPSGLYLLNGNNNIYPTAETPRFRKHTEPLQLPLNSSFLDYSREYFQEPQMKKQEADEPGSVEYNARLWRRNRNETIIQETQGEKKLSIYGNWSKKLISLNNKSQPKLMKFAQFEDQLITADDRSTITVFDWEKGKTLSKFSNGTPFGTKVTDLKLINEDDSALLLTGSSDGVIKIYRDYQDVDTFKIVSAWRGLTDMLLTPRSTGLLTEWLQIRGSLLTTGDVKVIRVWDAHTETVEVDIPAKTSSLITSLTADQLAGNIFVAGFADGSLRVYDRRLDPRDSMIRRWRAGNDKQGVWINNVHLQRGGYRELVSGATNGVVELWDIRSEDPVESFVDQNVTSQYGSQQKPTTMTCMQVHEHAPIIATGTKQIKIWTTSGDLLNSFKNSHNNGVTSTLAATGIPKSLSYSSTSDAFLSSMAFHPHRMMIAATNSHDSIVNIYKCEDERIDYF
B1: binds (Tor1); binds (cryo-EM structure).
